Patent publication US20170313754A1 (PROTAGONIST THERAPEUTICS, published 2017)
Numbered stars: 1 amine (or outer) side, 2 acyl side, 3 side chain; on linkers, the order of the positions; unused ones are H or OH. Bridge positions count the residues as written; N and C are the ends. Square brackets hold non-standard residues; d marks the D form. Ends that are not written are not given here. * marks the point of attachment. Ida = iminodiacetic acid, O=C(CN(CC(=O)[*:3])[*:1])[*:2]; Dip = N[C@H](C(=O)O)C(c1ccccc1)c1ccccc1; β3hF = N[C@H](CC(=O)O)Cc1ccccc1; pGlu = O=C1CC[C@@H](C(=O)O)N1; β3hP = O=C(O)C[C@@H]1CCCN1; Isovaleryl = CC(C)CC(=O)*

Biological target: T1, human ferroportin (SLC40A1) fused in frame with GFP, stably expressed in HEK293 cells (human, UniProt Q9NP59 1-571)
T1 sequence (looked up): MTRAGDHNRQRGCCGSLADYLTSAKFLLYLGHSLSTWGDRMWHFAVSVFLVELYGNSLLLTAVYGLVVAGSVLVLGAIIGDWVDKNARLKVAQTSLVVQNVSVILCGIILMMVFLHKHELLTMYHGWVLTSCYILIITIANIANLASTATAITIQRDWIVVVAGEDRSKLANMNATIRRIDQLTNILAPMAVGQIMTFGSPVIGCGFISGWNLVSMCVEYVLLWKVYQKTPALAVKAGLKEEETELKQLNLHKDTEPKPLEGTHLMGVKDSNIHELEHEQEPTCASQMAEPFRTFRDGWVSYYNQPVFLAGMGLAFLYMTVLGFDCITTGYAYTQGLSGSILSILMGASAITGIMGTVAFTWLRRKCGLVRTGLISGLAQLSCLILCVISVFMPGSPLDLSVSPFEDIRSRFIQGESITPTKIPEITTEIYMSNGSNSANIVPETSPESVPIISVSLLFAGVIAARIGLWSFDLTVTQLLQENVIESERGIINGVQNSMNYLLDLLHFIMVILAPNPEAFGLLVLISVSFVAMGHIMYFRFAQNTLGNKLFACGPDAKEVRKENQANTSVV
Test: cell-based or functional assay

H-DTHCPIAIF-NH2 [Hy-DTHCPIAIF-NH2]
Potency EC50 (nM), ferroportin-GFP internalization/degradation: > 10000 nM

H-DTHFPCAIF-NH2 [Hy-DTHFPCAIF-NH2, listing 1 of 2 here]
Potency EC50 (nM), ferroportin-GFP internalization/degradation: > 1000 nM

H-DTHFPCLF-NH2 [Hy-DTHFPCLF-NH2]
Potency: percent at the stated concentration, ferroportin-GFP internalization/degradation: 39 % at 1 uM

H-DTHFPCIIR-NH2 [Hy-DTHFPCIIR-NH2]
Potency: percent at the stated concentration, ferroportin-GFP internalization/degradation: 62 % at 1 µM

H-DTHFPCIEK-NH2 [Hy-DTHFPCIEK-NH2]
Potency: percent at the stated concentration, ferroportin-GFP internalization/degradation: 0 % at 1 µM

H-DTHFPCEIF-NH2 [Hy-DTHFPCEIF-NH2]
Potency EC50 (nM), ferroportin-GFP internalization/degradation: > 1000 nM

H-DTHFPRRFGPRSKGWVC-NH2 [Hy-DTHFPRRFGPRSKGWVC-NH2]
Potency EC50 (nM), ferroportin-GFP internalization/degradation: > 1000 nM

H-LTHFPCIIF-NH2 [Hy-LTHFPCIIF-NH2]
Potency: percent at the stated concentration, ferroportin-GFP internalization/degradation: 64 % at 1 µM

H-ETHFPCIIF-NH2 [Hy-ETHFPCIIF-NH2]
Potency: percent at the stated concentration, ferroportin-GFP internalization/degradation: 77 % at 1 µM

B1: Isovaleric acid-DTHFPCIIF-NH2 (peptide)
peptide: Isovaleryl-DTHFPCIIF-NH2
SMILES: CC[C@H](C)[C@H](NC(=O)[C@H](CS)NC(=O)[C@@H]1CCCN1C(=O)[C@H](Cc1ccccc1)NC(=O)[C@H](Cc1c[nH]cn1)NC(=O)[C@@H](NC(=O)[C@H](CC(=O)O)NC(=O)CC(C)C)[C@@H](C)O)C(=O)N[C@H](C(=O)N[C@@H](Cc1ccccc1)C(N)=O)[C@@H](C)CC
Potency EC50 (nM), ferroportin-GFP internalization/degradation: 16 nM

[Ida]TH[Dip][β3hP]CRR[β3hF]-NH2 [[IDA]-TH-[Dpa]-[bhPro]CRR-[bhPhe]-NH2]
Potency EC50 (nM), ferroportin-GFP internalization/degradation: 206 nM

B2: Hy-DTHF-(D)-Ala-CIIF-NH2 (peptide)
peptide: H-DTHF[dA]CIIF-NH2
SMILES: CC[C@H](C)[C@H](NC(=O)[C@H](CS)NC(=O)[C@@H](C)NC(=O)[C@H](Cc1ccccc1)NC(=O)[C@H](Cc1c[nH]cn1)NC(=O)[C@@H](NC(=O)[C@@H](N)CC(=O)O)[C@@H](C)O)C(=O)N[C@H](C(=O)N[C@@H](Cc1ccccc1)C(N)=O)[C@@H](C)CC
Potency EC50 (nM), ferroportin-GFP internalization/degradation: > 10000 nM

H-DTHFPCIVF-NH2 [Hy-DTHFPCIVF-NH2]
Potency: percent at the stated concentration, ferroportin-GFP internalization/degradation: 75 % at 1 µM

H-DTHFPCFIF-NH2 [Hy-DTHFPCFIF-NH2]
Potency EC50 (nM), ferroportin-GFP internalization/degradation: 1190 nM

H-DTAFPCIIF-NH2 [Hy-DTAFPCIIF-NH2]
Potency EC50 (nM), ferroportin-GFP internalization/degradation: 739 nM

H-DTKFPCIIF-NH2 [Hy-DTKFPCIIF-NH2]
Potency: percent at the stated concentration, ferroportin-GFP internalization/degradation: 60 % at 1 µM

H-DTHFPCRF-NH2 [Hy-DTHFPCRF-NH2]
Potency: percent at the stated concentration, ferroportin-GFP internalization/degradation: 31 % at 10 uM

DTHFPCIKFKPHSKECK (N-terminal isovaleric acid; K(isoglu-Palm) at Lys 10; C-terminal amide) [Isovaleric acid-DTHFPCIKF-K(isoglu-Palm)-PHSKECK-NH2]
Potency EC50 (nM), ferroportin-GFP internalization/degradation: 6 nM

[Ida]THF[β3hP]CIIF-NH2 [[Ida]-THF-[bhPro]-CIIF-NH2]
Potency EC50 (nM), ferroportin-GFP internalization/degradation: > 1000 nM

H-DTHFPCQIF-NH2 [Hy-DTHFPCQIF-NH2]
Potency EC50 (nM), ferroportin-GFP internalization/degradation: > 1000 nM

H-DTHFPCIIK-NH2 [Hy-DTHFPCIIK-NH2]
Potency: percent at the stated concentration, ferroportin-GFP internalization/degradation: 55 % at 1 µM

H-DTHFPCVIF-NH2 [Hy-DTHFPCVIF-NH2]
Potency: percent at the stated concentration, ferroportin-GFP internalization/degradation: 81 % at 10 uM

H-DTHFPCIEF-NH2 [Hy-DTHFPCIEF-NH2, listing 1 of 2 here]
Potency EC50 (nM), ferroportin-GFP internalization/degradation: > 1000 nM

H-DTHFPCIEF-NH2 [Hy-DTHFPCIEF-NH2, listing 2 of 2 here]
Potency EC50 (nM), ferroportin-GFP internalization/degradation: > 1000 nM

H-DTHFPCILK-NH2 [Hy-DTHFPCILK-NH2]
Potency: percent at the stated concentration, ferroportin-GFP internalization/degradation: 55 % at 1 µM

B3: Isovaleric acid-DTHFPCIKF-NH2 (peptide)
peptide: Isovaleryl-DTHFPCIKF-NH2
SMILES: CC[C@H](C)[C@H](NC(=O)[C@H](CS)NC(=O)[C@@H]1CCCN1C(=O)[C@H](Cc1ccccc1)NC(=O)[C@H](Cc1c[nH]cn1)NC(=O)[C@@H](NC(=O)[C@H](CC(=O)O)NC(=O)CC(C)C)[C@@H](C)O)C(=O)N[C@@H](CCCCN)C(=O)N[C@@H](Cc1ccccc1)C(N)=O
Potency EC50 (nM), ferroportin-GFP internalization/degradation: 7 nM

H-DTHAPCIIF-NH2 [Hy-DTHAPCIIF-NH2]
Potency EC50 (nM), ferroportin-GFP internalization/degradation: > 10000 nM

H-DTHFPCIF-NH2 [Hy-DTHFPCIF-NH2]
Potency: percent at the stated concentration, ferroportin-GFP internalization/degradation: 52 % at 1 µM

H-DTHFACIIF-NH2 [Hy-DTHFACIIF-NH2]
Potency EC50 (nM), ferroportin-GFP internalization/degradation: > 1000 nM

H-DTHFPCLIF-NH2 [Hy-DTHFPCLIF-NH2]
Potency EC50 (nM), ferroportin-GFP internalization/degradation: > 10000 nM

[Ida]THF[β3hP]CRR[β3hF]GPRSKGWVC-NH2 (disulfide 6-18 (inferred)) [[IDA]-THF-[bhPro]-CRR-[bhPhe]GPRSKGWVC-NH2]
Potency EC50 (nM), ferroportin-GFP internalization/degradation: > 1000 nM

H-DTHFPCIKFF-NH2 [Hy-DTHFPCIKFF-NH2]
Potency: percent at the stated concentration, ferroportin-GFP internalization/degradation: 64 % at 1 µM

H-DTHICIAIF-NH2 [Hy-DTHICIAIF-NH2]
Potency EC50 (nM), ferroportin-GFP internalization/degradation: > 10000 nM

H-DTHFPCAIF-NH2 [Hy-DTHFPCAIF-NH2, listing 2 of 2 here]
Potency EC50 (nM), ferroportin-GFP internalization/degradation: > 1000 nM

H-DTHFPCRIF-NH2 [Hy-DTHFPCRIF-NH2, listing 1 of 2 here]
Potency: percent at the stated concentration, ferroportin-GFP internalization/degradation: 31 % at 10 uM

Isovaleryl-DTHFPCIKKEPHSKECK-NH2 (disulfide 6-16 (inferred)) [Isovaleric acid-DTHFPCIKKEPHSKECK-NH2]
Potency EC50 (nM), ferroportin-GFP internalization/degradation: > 1000 nM

H-DTHFPCILF-NH2 [Hy-DTHFPCILF-NH2]
Potency: percent at the stated concentration, ferroportin-GFP internalization/degradation: 89 % at 1 µM

H-DTHFPIICI-NH2 [Hy-DTHFPIICI-NH2]
Potency EC50 (nM), ferroportin-GFP internalization/degradation: > 10000 nM

H-DTHFPCKIF-NH2 [Hy-DTHFPCKIF-NH2]
Potency: percent at the stated concentration, ferroportin-GFP internalization/degradation: 9 % at 10 uM

H-DTHFPIAICI-NH2 [Hy-DTHFPIAICI-NH2]
Potency EC50 (nM), ferroportin-GFP internalization/degradation: > 10000 nM

H-ATHFPCIIF-NH2 [Hy-ATHFPCIIF-NH2]
Potency EC50 (nM), ferroportin-GFP internalization/degradation: > 1000 nM

B4: Hy-[pGlu]-THFPCRKF-NH2 (peptide)
peptide: [pGlu]THFPCRKF-NH2
SMILES: C[C@@H](O)[C@H](NC(=O)[C@@H]1CCC(=O)N1)C(=O)N[C@@H](Cc1c[nH]cn1)C(=O)N[C@@H](Cc1ccccc1)C(=O)N1CCC[C@H]1C(=O)N[C@@H](CS)C(=O)N[C@@H](CCCNC(=N)N)C(=O)N[C@@H](CCCCN)C(=O)N[C@@H](Cc1ccccc1)C(N)=O
Potency EC50 (nM), ferroportin-GFP internalization/degradation: > 1000 nM

H-DTHFPCRIF-NH2 [Hy-DTHFPCRIF-NH2, listing 2 of 2 here]
Potency EC50 (nM), ferroportin-GFP internalization/degradation: > 1000 nM

H-DTHFPCIIA-NH2 [Hy-DTHFPCIIA-NH2]
Potency EC50 (nM), ferroportin-GFP internalization/degradation: > 1000 nM
